From patent publication US20030072795A1 (US Dept. of Health and Human Services, published 2003) come the findings set out here.

Data set [1] addresses T1, recombinant full-length human transglutaminase 1 (TGase 1) enzyme (human, UniProt P22735 1-817, constitutively N-myristoylated and S-myristoylated or S-palmitoylated on its amino-terminal 10 kDa portion).
T1 construct: also called TGase I; TGAaseI
T1 sequence (looked up): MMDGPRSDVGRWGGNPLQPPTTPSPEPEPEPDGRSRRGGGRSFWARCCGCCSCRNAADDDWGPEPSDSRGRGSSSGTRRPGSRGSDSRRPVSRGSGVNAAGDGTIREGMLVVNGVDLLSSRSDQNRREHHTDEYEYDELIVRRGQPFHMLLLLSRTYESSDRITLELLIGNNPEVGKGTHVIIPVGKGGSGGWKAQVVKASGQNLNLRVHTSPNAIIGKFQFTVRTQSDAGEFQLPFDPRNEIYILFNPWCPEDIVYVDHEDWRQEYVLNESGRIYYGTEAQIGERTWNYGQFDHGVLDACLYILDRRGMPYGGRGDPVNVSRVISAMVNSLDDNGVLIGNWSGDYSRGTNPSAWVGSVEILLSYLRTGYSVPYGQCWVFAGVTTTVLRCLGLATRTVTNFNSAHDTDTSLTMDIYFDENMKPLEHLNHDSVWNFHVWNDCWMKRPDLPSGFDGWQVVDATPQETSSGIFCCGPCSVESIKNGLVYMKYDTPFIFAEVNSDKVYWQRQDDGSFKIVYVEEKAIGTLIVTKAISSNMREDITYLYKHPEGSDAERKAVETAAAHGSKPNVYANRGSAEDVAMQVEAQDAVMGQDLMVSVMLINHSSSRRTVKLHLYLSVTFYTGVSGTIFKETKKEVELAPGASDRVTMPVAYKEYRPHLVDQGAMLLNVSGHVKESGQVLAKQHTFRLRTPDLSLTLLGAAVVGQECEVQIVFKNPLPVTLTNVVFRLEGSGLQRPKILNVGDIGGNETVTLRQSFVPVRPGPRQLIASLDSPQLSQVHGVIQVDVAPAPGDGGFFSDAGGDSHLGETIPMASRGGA
Put plainly: 14C-putrescine labelling of involucrin Gln residues by TGase 1, tryptic peptide sequencing. The protocol: In this first set of experiments, the Gln residues of involucrin that were cross-linked by recombinant TGase 1 were analyzed in the absence of natural insect cell membranes and SLV. ¹⁴C-putrescine incorporation into involucrin was analyzed following trypsin digestion and separation of tryptic peptides on a C18 reverse phase HPLC column. Labeled peptide peaks were dried and identified by sequencing. The PTH derivative of (-glutamylputrescine isopeptide formed in the TGase reaction was identified as a distinct peak in the Porton LP 3000 gas-phase sequencer. (FIG. 7). A total of 40 tryptic peptides were reliably separated, of which 29 (arrows) were labeled by ¹⁴C-putrescine in a reaction with solubilized recombinant TGase 1 and involucrin. (FIG. 8A). Sequencing identified […] labeled Gln residues (Table 2, panel A), with a total of about 20 mol of putrescine incorporated/mol of involucrin (Table 2, panel A). In contrast to the 29 Gln residues found to be involved in the binding of involucrin to soluble TGase 1 in the experiments above, membrane-bound TGase 1 binds to involucrin through five specific Gln residues, as discussed in the following section.

For data set [2], the target named is T2, recombinant human involucrin, P07476.
T2 chain: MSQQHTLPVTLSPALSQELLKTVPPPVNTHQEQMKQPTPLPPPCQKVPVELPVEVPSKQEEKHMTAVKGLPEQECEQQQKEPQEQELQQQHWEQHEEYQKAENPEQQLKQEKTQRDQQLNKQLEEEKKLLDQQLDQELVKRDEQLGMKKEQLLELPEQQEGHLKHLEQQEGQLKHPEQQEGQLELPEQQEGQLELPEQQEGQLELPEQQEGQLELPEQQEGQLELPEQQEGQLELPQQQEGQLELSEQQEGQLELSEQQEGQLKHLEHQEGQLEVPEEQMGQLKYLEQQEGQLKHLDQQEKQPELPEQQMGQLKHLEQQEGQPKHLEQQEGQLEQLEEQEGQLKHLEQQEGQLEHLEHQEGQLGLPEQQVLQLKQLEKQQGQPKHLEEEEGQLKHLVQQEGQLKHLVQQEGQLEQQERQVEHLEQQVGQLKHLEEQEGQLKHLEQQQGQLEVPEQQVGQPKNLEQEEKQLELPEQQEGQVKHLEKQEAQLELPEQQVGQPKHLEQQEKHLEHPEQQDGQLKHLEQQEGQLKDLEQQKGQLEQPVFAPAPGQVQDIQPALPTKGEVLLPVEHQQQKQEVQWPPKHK

Data set [3] deals with recombinant human small proline rich protein 2 (SPR2).

B1: recombinant human involucrin (other, UniProt P07476 1-585, looked up)
chain: T2 chain
notes: Substrate of TGase 1
As to B1, the binding result in data set [1] is reported as “binds”.

B2: recombinant full-length human transglutaminase 1 (TGase 1) enzyme (protein)
chain: T1 sequence (looked up)
For B2, in data set [2], the KM(app) of the protein substrate; 14C-putrescine incorporation by SLV-bound TGase 1 (15% PS) is 2.9 µM; the KM(app) of the protein substrate; 14C-putrescine incorporation by solubilized TGase 1 stood at 114 µM; the “fold decrease of KM, SLV with 15% PS against solubilized TGase 1 and soluble involucrin” value is “an approximately 40-fold decreased KM”; the “kinetic parameters for involucrin as substrate, SLV-bound TGase 1 (0% PS)” value is reported as “The kinetic parameters for involucrin as a substrate were immeasurably low when the SLV were formulated in the absence of PS”. Moreover, in data set [3], the KM(app) of the protein substrate; 14C-putrescine incorporation by SLV-bound TGase 1 (0% PS) came to 25.3 µM, the KM(app) of the protein substrate; 14C-putrescine incorporation by SLV-bound TGase 1 (15% PS) came out at 22.8 µM, the KM(app) of the protein substrate; 14C-putrescine incorporation by solubilized TGase 1 came out at 13.2 µM and the “fold increase of KM after attachment of TGase 1 to SLV (0 or 15% PS)” value is “differed only by about a two-fold increase in KM if the PS content of SLV was 0 or 15%”. Further, in the data set with succinylated casein, the KM(app) of the protein substrate; 14C-putrescine incorporation by SLV-bound TGase 1 (0% PS) worked out at 138 µM, the KM(app) of the protein substrate; 14C-putrescine incorporation by SLV-bound TGase 1 (15% PS) was 145 µM and the KM(app) of the protein substrate; 14C-putrescine incorporation by solubilized TGase 1 was 61.4 µM.
